Laboratory results from patent US20200087400A1 (EUREKA THERAPEUTICS, published 2020).

Legend:
Assay in all cases: phage ELISA, streptavidin plate, anti-M13-HRP
Bio-P19 member A2E-15 = target: T1, Bio-P19 member A2E-15 (chain 2: C-terminal BirA substrate peptide (BSP), enzymatically biotinylated; its letters are not printed in the patent and it is left out)
T1 construct: also called biotinylated control peptide A2E-15/HLA-A*02:01 monomer
How it was run: (§1)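 Phage clones selected by panning against PSA146/HLA-A*02:01 are tested by ELISA in coated streptavidin plates, with HRP-labelled anti-M13 and substrate development read at 450 nm.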

Bio-P19 member A2E-1 = target: T2, Bio-P19 member A2E-1 (chain 2: C-terminal BirA substrate peptide (BSP), enzymatically biotinylated; its letters are not printed in the patent and it is left out)
T2 construct: also called biotinylated control peptide A2E-1/HLA-A*02:01 monomer
T2 sequence (b2m, as listed by the source): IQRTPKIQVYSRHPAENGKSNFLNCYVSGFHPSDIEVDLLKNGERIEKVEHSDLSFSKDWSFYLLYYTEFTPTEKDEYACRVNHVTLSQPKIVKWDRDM
How it was run: as §1

Bio-P19 member A2E-8 = target: T3, Bio-P19 member A2E-8 (chain 2 (heavy): C-terminal BirA substrate peptide, biotinylated there by BirA; tag letters not given, left out)
T3 construct: also called biotinylated control peptide A2E-8/HLA-A*02:01 monomer; not shown: BirA substrate peptide (BSP) tag at the C-terminus of the heavy chain
T3 sequence (b2m, as listed by the source): as above
How it was run: as §1

Bio-P19 member A2E-7 = target: T4, Bio-P19 member A2E-7 (chain 2 (heavy): C-terminal BirA substrate peptide, biotinylated there by BirA; tag letters not given, left out)
T4 construct: also called biotinylated control peptide A2E-7/HLA-A*02:01 monomer; not shown: BirA substrate peptide (BSP) tag at the C-terminus of the heavy chain
T4 sequence (b2m, as listed by the source): as above
How it was run: as §1

Bio-P19 member A2E-14 = target: T5, Bio-P19 member A2E-14 (chain 2: C-terminal BirA substrate peptide (BSP), enzymatically biotinylated; its letters are not printed in the patent and it is left out)
T5 construct: also called biotinylated control peptide A2E-14/HLA-A*02:01 monomer
T5 sequence (b2m, as listed by the source): as above
How it was run: as §1

Bio-P19 member A2E-23 = target: T6, Bio-P19 member A2E-23 (chain 2 carries a C-terminal BirA substrate peptide (BSP), enzymatically biotinylated; the BSP letters are not given in the patent and are left out)
T6 construct: also called biotinylated control peptide A2E-23/HLA-A*02:01 monomer
T6 sequence (beta, as listed by the source): as the sequence (b2m, as listed by the source) above
How it was run: as §1

Bio-P19 member A2E-21 = target: T7, Bio-P19 member A2E-21 (chain 2 carries a C-terminal BirA substrate peptide (BSP), enzymatically biotinylated; the BSP letters are not given in the patent and are left out)
T7 construct: also called biotinylated control peptide A2E-21/HLA-A*02:01 monomer
T7 sequence (beta, as listed by the source): as the sequence (b2m, as listed by the source) above
How it was run: as §1

Bio-P19 member A2E-10 = target: T8, Bio-P19 member A2E-10 (chain 2: C-terminal BirA substrate peptide (BSP), enzymatically biotinylated; its letters are not printed in the patent and it is left out)
T8 construct: also called biotinylated control peptide A2E-10/HLA-A*02:01 monomer
T8 sequence (b2m, as listed by the source): as above
How it was run: as §1

Bio-P19 member A2E-17 = target: T9, Bio-P19 member A2E-17 (chain 2: C-terminal BirA substrate peptide (BSP), enzymatically biotinylated; its letters are not printed in the patent and it is left out)
T9 construct: also called biotinylated control peptide A2E-17/HLA-A*02:01 monomer
T9 sequence (b2m, as listed by the source): as above
How it was run: as §1

Bio-P19 member A2E-16 = target: T10, Bio-P19 member A2E-16 (chain 2: C-terminal BirA substrate peptide (BSP), enzymatically biotinylated; its letters are not printed in the patent and it is left out)
T10 construct: also called biotinylated control peptide A2E-16/HLA-A*02:01 monomer
T10 sequence (b2m, as listed by the source): as above
How it was run: as §1

Bio-P19 member A2E-6 = target: T11, Bio-P19 member A2E-6 (chain 2 carries a C-terminal BirA substrate peptide (BSP), enzymatically biotinylated; the BSP letters are not given in the patent and are left out)
T11 construct: also called biotinylated control peptide A2E-6/HLA-A*02:01 monomer
T11 sequence (beta, as listed by the source): as the sequence (b2m, as listed by the source) above
How it was run: as §1

Bio-P19 member A2E-3 = target: T12, Bio-P19 member A2E-3 (chain 2 carries a C-terminal BirA substrate peptide (BSP), enzymatically biotinylated; the BSP letters are not given in the patent and are left out)
T12 construct: also called biotinylated control peptide A2E-3/HLA-A*02:01 monomer
T12 sequence (beta, as listed by the source): as the sequence (b2m, as listed by the source) above
How it was run: as §1

Bio-P19 member A2E-11 = target: T13, Bio-P19 member A2E-11 (chain 2: C-terminal BirA substrate peptide (BSP), enzymatically biotinylated; its letters are not printed in the patent and it is left out)
T13 construct: also called biotinylated control peptide A2E-11/HLA-A*02:01 monomer
T13 sequence (b2m, as listed by the source): as above
How it was run: as §1

Bio-P19 member A2E-2 = target: T14, Bio-P19 member A2E-2 (chain 2 carries a C-terminal BirA substrate peptide (BSP), enzymatically biotinylated; the BSP letters are not given in the patent and are left out)
T14 construct: also called biotinylated control peptide A2E-2/HLA-A*02:01 monomer
T14 sequence (beta, as listed by the source): as the sequence (b2m, as listed by the source) above
How it was run: as §1

Bio-P19 member A2E-5 = target: T15, Bio-P19 member A2E-5 (chain 2 carries a C-terminal BirA substrate peptide (BSP), enzymatically biotinylated; the BSP letters are not given in the patent and are left out)
T15 construct: also called biotinylated control peptide A2E-5/HLA-A*02:01 monomer
T15 sequence (beta, as listed by the source): as the sequence (b2m, as listed by the source) above
How it was run: as §1

Bio-P19 member A2E-13 = target: T16, Bio-P19 member A2E-13 (chain 2: C-terminal BirA substrate peptide (BSP), enzymatically biotinylated; its letters are not printed in the patent and it is left out)
T16 construct: also called biotinylated control peptide A2E-13/HLA-A*02:01 monomer
T16 sequence (b2m, as listed by the source): as above
How it was run: as §1

Measured: binding result

T1 sequence (b2m, as listed by the source): as above

B1: PSA146/HLA-A*02:01-specific scFv phage clone #6 (scFv, V domains shown)
VH: EVQLVQSGAEVKKPGASVKVSCKASGYTFTGYYIHWVRQAPGQGLEWMGGFDPEDGETIYAQKFQDRVTMTADTSTDTAYMELSSLRSEDTAVYYCARYGFDYWGQGTLVTVSS
VL: QAVVTQEPSLTVSPGGTVTLTCASSTGAVTSGYYPNWFQLKPGQAPRALIYTTGKKHSWAPARFSGSLLGGKAALTLSGVQPEDEAEYYCLLYSGGVWVFGGGTKLTVLG
no binding: Bio-P19 member A2E-15 | Bio-P19 member A2E-1 | Bio-P19 member A2E-8 | Bio-P19 member A2E-7 | Bio-P19 member A2E-14 | Bio-P19 member A2E-23 | Bio-P19 member A2E-21 | Bio-P19 member A2E-10 | Bio-P19 member A2E-17 | Bio-P19 member A2E-16 | Bio-P19 member A2E-6 | Bio-P19 member A2E-3 | Bio-P19 member A2E-11 | Bio-P19 member A2E-2 | Bio-P19 member A2E-5 | Bio-P19 member A2E-13

B2: PSA146/HLA-A*02:01-specific scFv phage clone #3 (scFv, V domains shown)
VH: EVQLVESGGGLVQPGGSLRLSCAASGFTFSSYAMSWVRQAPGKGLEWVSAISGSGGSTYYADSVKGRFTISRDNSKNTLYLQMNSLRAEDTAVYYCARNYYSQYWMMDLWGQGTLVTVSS
VL: QSVLTQPPSVSGAPGQRVTISCTGSSSNFGAGYDVHWYQQLPGAAPKLLIYGDTNRPSGVPDRFSGSKSGTSASLAITGLQAEDEADYYCQSYDTSLSGSVFGGGTKLTVLG
no binding: Bio-P19 member A2E-15 | Bio-P19 member A2E-1 | Bio-P19 member A2E-8 | Bio-P19 member A2E-7 | Bio-P19 member A2E-14 | Bio-P19 member A2E-23 | Bio-P19 member A2E-21 | Bio-P19 member A2E-10 | Bio-P19 member A2E-17 | Bio-P19 member A2E-16 | Bio-P19 member A2E-6 | Bio-P19 member A2E-3 | Bio-P19 member A2E-11 | Bio-P19 member A2E-2 | Bio-P19 member A2E-5 | Bio-P19 member A2E-13

B3: PSA146/HLA-A*02:01-specific scFv phage clone #5 (scFv, V domains shown)
VH: QVQLVQSGAEVKKPGDSVKVSCKPSGYNFLNYGINWVRQAPGQGLEWMGWISTYTGNTNYAQKLQGRVTFTTDTSTSTAYMEMRSLRSDDTAVYYCARSSEYYTWDHWGQGTLVTVSS
VL: QSVLTQPPSVSGAPGQRVTISCTGSSSNIGAGYDVHWYQQLPGTAPKLLIYGNSNRPSGVPDRFSGSKSGTSASLAITGLQAEDEADYYCQSYDSSLSGWVFGGGTKLTVLG
no binding: Bio-P19 member A2E-15 | Bio-P19 member A2E-1 | Bio-P19 member A2E-8 | Bio-P19 member A2E-7 | Bio-P19 member A2E-14 | Bio-P19 member A2E-23 | Bio-P19 member A2E-21 | Bio-P19 member A2E-10 | Bio-P19 member A2E-17 | Bio-P19 member A2E-16 | Bio-P19 member A2E-6 | Bio-P19 member A2E-3 | Bio-P19 member A2E-11 | Bio-P19 member A2E-2 | Bio-P19 member A2E-5 | Bio-P19 member A2E-13

B4: PSA146/HLA-A*02:01-specific scFv phage clone #17 (scFv, V domains shown)
VH: QMQLVQSGAEVKKPGESLKISCKGSGYSFTSYWIGWVRQMPGKGLEWMGIIYPGDSDTRYSPSFQGQVTISADKSISTAYLQWSSLKASDTAMYYCARLVVPDAFDIWGQGTMVTVSS
VL: QSVVTQPPSVSAAPGQKVTISCSGSSSNIGNNYVSWYQQLPGTAPKLLIYDNYKRPSGIPDRFSGSKSGTSATLGITGLQTGDEADYYCGTWDSSLSAGVFGGGTKLTVLG
no binding: Bio-P19 member A2E-15 | Bio-P19 member A2E-1 | Bio-P19 member A2E-8 | Bio-P19 member A2E-7 | Bio-P19 member A2E-14 | Bio-P19 member A2E-21 | Bio-P19 member A2E-10 | Bio-P19 member A2E-17 | Bio-P19 member A2E-16 | Bio-P19 member A2E-6 | Bio-P19 member A2E-11 | Bio-P19 member A2E-5 | Bio-P19 member A2E-13

B5: PSA146/HLA-A*02:01-specific scFv phage clone #2 (scFv, V domains shown)
VH: EVQLVQSGAEVKRPGSSVKVSCKASGGTFSSYAINWVRRAPGQGLEWMGKIIPIPGITNYAQKFQDRVTFTADTSTNIAYMELSSLRSEDTAMYYCARSYKWGSSLVDAWGQGTLVTVSS
VL: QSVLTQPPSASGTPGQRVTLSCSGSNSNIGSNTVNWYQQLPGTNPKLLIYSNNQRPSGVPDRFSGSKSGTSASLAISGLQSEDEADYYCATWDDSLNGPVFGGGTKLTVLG
no binding: Bio-P19 member A2E-15 | Bio-P19 member A2E-1 | Bio-P19 member A2E-8 | Bio-P19 member A2E-7 | Bio-P19 member A2E-14 | Bio-P19 member A2E-23 | Bio-P19 member A2E-21 | Bio-P19 member A2E-10 | Bio-P19 member A2E-17 | Bio-P19 member A2E-16 | Bio-P19 member A2E-6 | Bio-P19 member A2E-3 | Bio-P19 member A2E-11 | Bio-P19 member A2E-2 | Bio-P19 member A2E-5 | Bio-P19 member A2E-13
